The values below come from EP4725970A1 (Fortvita Biologics Inc., dated 2026).

In assay [1] the target is T1, human GPRC5D (full-length, on cells) (human, UniProt Q9NZD1 1-345). Nature of the assay: cell-based or functional assay.
In assay [2] the target is T1, human GPRC5D (full-length, on cells). Nature of the assay: flow cytometry, GS-CHO-hGPRC5D cells. A general note: In flow cytometry, cells or beads pass a laser one at a time.
Assay [3] has as its target T2, human BCMA (full-length, on cells) (human, UniProt Q02223 1-184).
T2 sequence: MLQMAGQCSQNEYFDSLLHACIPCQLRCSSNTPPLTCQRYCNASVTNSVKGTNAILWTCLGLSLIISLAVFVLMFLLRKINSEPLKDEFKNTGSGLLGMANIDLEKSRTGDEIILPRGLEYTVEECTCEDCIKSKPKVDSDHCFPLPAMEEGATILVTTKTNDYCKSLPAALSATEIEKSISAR
Nature of the assay: cell-based or functional assay.

The target in assay [4] is T3, cynomolgus monkey GPRC5D (full-length, on cells) (cynomolgus monkey, UniProt A0A2K5W6I7 1-300).
T3 construct: also called cynoGPRC5D; GS-CHO-cynoGPRC5D
Nature of the assay: flow cytometry, GS-CHO-cynoGPRC5D cells.

For assay [5], the target named is T2, human BCMA (full-length, on cells). Nature of the assay: flow cytometry, GS-CHO-hBCMA cells.
A further assay deals with T4, cyno CD3E&G-His/Free (cynomolgus monkey, UniProt Q95LI5 22-117; Q95LI7 23-113).
T4 construct: Bought recombinant heterodimer; also called monkey CD3 E&G
T4 sequence (looked up) 1: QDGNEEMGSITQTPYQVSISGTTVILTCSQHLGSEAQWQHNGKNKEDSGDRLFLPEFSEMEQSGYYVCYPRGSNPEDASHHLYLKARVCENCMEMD
T4 sequence (looked up) 2: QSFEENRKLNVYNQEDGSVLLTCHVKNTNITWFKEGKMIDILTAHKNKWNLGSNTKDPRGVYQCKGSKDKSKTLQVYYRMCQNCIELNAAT
Nature of the assay: BLI (Octet), 1:1 fit. (BLI is a label-free optical method that tracks binding on a fibre tip over time.)

A further assay has as its target T5, Cyno BCMA-His (cynomolgus monkey, UniProt A0A2K5UD97 1-53).
T5 construct: also called Cyno BCMA (ACRO BCA-C52H7); monkey BCMA
In words: BLI (Octet), 1:1 fit.

Another assay concerns the target T6, human CD3E&G-His/Free (human, UniProt P07766 23-126; P09693 23-116).
T6 construct: Bought recombinant heterodimer; 'His/Free' as printed (one chain His-tagged); also called human CD3 E&G heterodimer
In words: BLI (Octet), 1:1 fit.

Assay [6] addresses T1, human GPRC5D (full-length, on cells). Nature of the assay: cell-based or functional assay. The source holds these as a separate data set.
Assay [7] has as its target T2, human BCMA (full-length, on cells). Nature of the assay: cell-based or functional assay. The source holds these as a separate data set.
For assay [8] the target is unchanged. In words: flow cytometry, GS-CHO-hBCMA cells. The source holds these as a separate data set.
Assay [9] has as its target T7, cynomolgus monkey BCMA (full-length, on cells) (cynomolgus monkey, UniProt A0A2K5UD97 1-183).
T7 construct: whole, on cells; also called cynoBCMA; GS-CHO-cynoBCMA
Nature of the assay: flow cytometry, GS-CHO-cynoBCMA cells.

Assay [10] has as its target T1, human GPRC5D (full-length, on cells). Nature of the assay: cell-based or functional assay. This is another data set of the same source.
The target is the same in assay [11]. In words: flow cytometry, GS-CHO-hGPRC5D cells. The source holds these as a separate data set.
The target of assay [12] is T2, human BCMA (full-length, on cells). Nature of the assay: cell-based or functional assay. This is another data set of the same source.
Assay [13] addresses T1, human GPRC5D (full-length, on cells). Nature of the assay: cell-based or functional assay. The source holds these as a separate data set.
Assay [14] deals with T8, human CD3 (on Jurkat cells and human T cells) (human, UniProt P07766 23-207).
T8 construct: whole, on cells; the other chains of the complex on the cells are not described; also called CD3E
Nature of the assay: flow cytometry, human CD4 T cells.

The target in assay [15] is T8, human CD3 (on Jurkat cells and human T …). In words: flow cytometry, human CD8 T cells.
For assay [16] the target is unchanged. In words: flow cytometry, Jurkat cells.

Read-outs that look alike come from different tables or passages of the source.

T8 sequence (P07766 23-207): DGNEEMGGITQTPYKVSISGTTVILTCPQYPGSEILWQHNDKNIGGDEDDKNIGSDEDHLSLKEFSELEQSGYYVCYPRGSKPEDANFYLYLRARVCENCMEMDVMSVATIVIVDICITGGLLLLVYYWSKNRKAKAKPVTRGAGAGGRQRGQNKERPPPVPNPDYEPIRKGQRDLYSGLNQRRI
T6 sequence (P07766 23-126, chain 1 of 2): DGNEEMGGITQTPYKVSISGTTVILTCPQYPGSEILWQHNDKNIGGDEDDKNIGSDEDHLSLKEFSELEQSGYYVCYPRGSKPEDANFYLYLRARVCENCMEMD
T6 sequence (P09693 23-116, chain 2 of 2): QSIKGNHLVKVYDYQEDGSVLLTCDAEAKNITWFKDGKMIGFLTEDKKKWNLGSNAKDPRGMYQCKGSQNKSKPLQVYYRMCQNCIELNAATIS
T1 sequence (Q9NZD1 whole entry): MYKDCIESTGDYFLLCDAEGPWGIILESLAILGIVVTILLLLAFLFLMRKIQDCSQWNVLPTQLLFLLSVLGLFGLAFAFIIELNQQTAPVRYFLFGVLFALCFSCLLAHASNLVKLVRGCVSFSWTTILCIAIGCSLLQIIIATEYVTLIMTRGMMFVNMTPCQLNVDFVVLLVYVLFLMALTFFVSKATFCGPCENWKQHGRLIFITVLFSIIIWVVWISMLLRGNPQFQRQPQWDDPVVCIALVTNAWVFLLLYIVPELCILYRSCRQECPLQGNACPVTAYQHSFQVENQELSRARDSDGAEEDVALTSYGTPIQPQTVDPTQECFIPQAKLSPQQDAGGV
T5 sequence (A0A2K5UD97 entry or part of it): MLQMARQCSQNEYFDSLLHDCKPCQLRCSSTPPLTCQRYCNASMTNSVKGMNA
T3 sequence (A0A2K5W6I7 entry or part of it limits assumed, form in doubt): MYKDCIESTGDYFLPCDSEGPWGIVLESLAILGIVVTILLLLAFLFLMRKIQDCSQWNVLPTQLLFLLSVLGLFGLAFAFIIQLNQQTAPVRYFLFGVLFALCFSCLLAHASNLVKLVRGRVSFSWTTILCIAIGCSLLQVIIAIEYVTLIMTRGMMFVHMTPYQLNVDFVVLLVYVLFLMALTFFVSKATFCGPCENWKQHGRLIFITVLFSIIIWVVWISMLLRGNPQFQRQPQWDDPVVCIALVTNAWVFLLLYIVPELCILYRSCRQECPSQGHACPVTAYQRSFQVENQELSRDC
T7 sequence (A0A2K5UD97 entry or part of it): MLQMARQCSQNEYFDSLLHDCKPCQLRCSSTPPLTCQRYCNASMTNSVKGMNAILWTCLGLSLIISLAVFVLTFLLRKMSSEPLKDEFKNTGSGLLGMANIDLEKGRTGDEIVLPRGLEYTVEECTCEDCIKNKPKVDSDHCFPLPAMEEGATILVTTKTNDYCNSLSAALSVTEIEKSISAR

B1: F2 (87) (F2-SP34.87-SC38497) (trispecific antibody, human IgG1, kappa, lambda, L234A L235A)
heavy 1: not shown
light 1: DIVMTQSPDSLAVSLGERATINCRASESVDSYGITFMNWYQQKPGQPPKLLIYAASNQGSGVPDRFSGSGSGTDFTLTISSLQAEDVAVYYCQQSKEVPWTFGQGTKLEIKRTVAAPSVFIFPPSDEQLKSGTASVVCLLNNFYPREAKVQWKVDNALQSGNSQESVTEQDSKDSTYSLSSTLTLSKADYEKHKVYACEVTHQGLSSPVTKSFNRGEC
heavy 2: EVQLVESGGGLVQPGGSLKLSCAASGFTFNTYAMNWVRQASGKGLEWVGRIRSKYNNYATYYADSVKDRFTISRDDSKSTLYLQMNSLKTEDTAVYYCARHYNFGQSYVSWFAYWGQGTTVTVSSASTKGPSVFPLAPSSKSTSGGTAALGCLVKDYFPEPVTVSWNSGALTSGVHTFPAVLQSSGLYSLSSVVTVPSSSLGTQTYICNVNHKPSNTKVDKKVEPKSCDKTHTCPPCPAPEAAGGPSVFLFPPKPKDTLMISRTPEVTCVVVDVSHEDPEVKFNWYVDGVEVHNAKTKPREEQYNSTYRVVSVLTVLHQDWLNGKEYKCKVSNKALPAPIEKTISKAKGQPREPQVYTLPPSRDELTKNQVSLSCAVKGFYPSDIAVEWESNGQPENNYKTTPPVLDSDGSFFLVSKLTVDKSRWQQGNVFSCSVMHEALHNHYTQKSLSLSPGAGGGGSGGGGSDIQMTQSPSSLSASVGDRVTITCRASQSISRYLNWYQQKPGKAPKLLIYAASSLQSGVPSRFSGSGSGTDFTLTISSLQPEDFATYYCQQKYFDITFGCGTKVEIKGGGGSGGGGSGGGGSQLQLQESGPGLVKPSETLSLTCTVSGGSIVSSSYYWTWIRQPPGKCLEWIGSISIAGSTYYNPSLKSRVTISVDTSKNQFSLKLSSVTAADTAVYYCARDRGDQILDVWSQGTMVTVSS
light 2: QAVVTQEPSLTVSPGGTVTLTCRSSTGAVTTSNYANWVQQKPGQAPRGLIGGTNKRAPGVPARFSGSLLGDKAALTLLGAQPEDEAEYYCALWYSNLWVFGQGTKLTVLGQPKAAPSVTLFPPSSEELQANKATLVCLISDFYPGAVTVAWKADSSPVKAGVETTTPSKQSNNKYAASSYLSLTPEQWKSHRSYSCQVTHEGSTVEKTVAPTECS
B1: the “EC50 of PBMC killing of H929 ko BCMA cells (LDH)” value in assay [1] is 7.39 pM; in [10] it was 25.6 pM. In addition, the EC50 was determined as 94.1 nM in assay [2]; 196 nM in assay [4]; 120 nM in assay [5]; 211 nM in assay [8]; 117 nM in assay [9]; 98.6 nM in assay [11]. In addition, the “EC50 of PBMC killing of H929 ko GPRC5D cells (LDH)” value in [3] was 67.7 pM; in assay [7] it was 428 pM. For the same molecule, the dissociation constant (Kd) was 71.1 nM with cyno CD3E&G-His/Free, 1.55 nM with Cyno BCMA-His and 55 nM with human CD3E&G-His/Free. Also, the off-rate constant (koff) with cyno CD3E&G-His/Free turned out to be 0.0124 s⁻¹; with Cyno BCMA-His it was 0.000961 s⁻¹; with human CD3E&G-His/Free, 0.0131 s⁻¹. Further, the association rate constant (kon) was 175000 M⁻¹ s⁻¹ with cyno CD3E&G-His/Free, 621000 M⁻¹ s⁻¹ in the assay with Cyno BCMA-His and 239000 M⁻¹ s⁻¹ with human CD3E&G-His/Free. Further, the “EC50 of PBMC killing of H929 ko BCMA cells, donor1” value in assay [6] was found to be 34.2 pM. For the same molecule, the “EC50 of PBMC killing of H929 ko GPRC5D cells, donor1” value in assay [12] came out at 30.4 pM.

B2: Inno-G-7F5.3 (trispecific antibody, human IgG1, kappa, lambda, L234A L235A)
heavy 1: not shown
light 1: not shown
heavy 2: not shown
light 2: DIQMTQSPSSLSASVGDRVTITCRASQSISSYLNWYQDKPGKAPKLLIYAASSLQSGVPSRFSGSGSGTDFTLTISSLQPEDFATYYCQQADLPAFAFGGGTKVEIKRTVAAPSVFIFPPSDECLKSGTASVVCLLNNFYPREAKVQWKVDNALQSGNSQESVTEQDSKDSTYSLSSTLTLSKADYEKHKVYACEVTHQGLSSPVTKSFNRGES
light 3: QAVVTQEPSLTVSPGGTVTLTCRSSTGAVTTSNYANWVQKKPGQAPRGLIGGTNKRAPGVPARFSGSLLGDKAALTLLGAQPEDEAEYYCALWYSNLWVFGQGTKLTVLGQPKAAPSVTLFPPSSEELQANKATLVCLISDFYPGAVTVAWKADSSPVKAGVETTTPSKQSNNKYAASSYLSLTPEQWKSHRSYSCQVTHEGSTVEKTVAPTECS
In the case of B2, in assay [13], the “EC50 of PBMC killing of L363 cells” value was found to be 1070 pM.

B3: Inno-G (hz5E12_sp34.24_Hel_triFab) (trispecific antibody, human IgG1, kappa, lambda, L234A L235A)
heavy 1: not shown
light 1: DIVMTQSPDSLAVSLGERATINCRASESVDSYGITFMNWYQQKPGQPPKLLIYAASNQGSGVPDRFSGSGSGTDFTLTISSLQAEDVAVYYCQQSKEVPWTFGQGTKLEIKRTVAAPSVFIFPPSDEQLKSGTASVVCLLNNFYPREAKVQWKVDNALQSGNSQESVTEQDSKDSTYSLSSTLTLSKADYEKHKVYACEVTHQGLSSPVTKSFNRGEC
heavy 2: not shown
light 2: DIQMTQSPSSLSASVGDRVTITCRASQSISSYLNWYQDKPGKAPKLLIYAASSLQSGVPSRFSGSGSGTDFTLTISSLQPEDFATYYCQQADLPAFAFGGGTKVEIKRTVAAPSVFIFPPSDECLKSGTASVVCLLNNFYPREAKVQWKVDNALQSGNSQESVTEQDSKDSTYSLSSTLTLSKADYEKHKVYACEVTHQGLSSPVTKSFNRGES
light 3: QAVVTQEPSLTVSPGGTVTLTCRSSTGAVTTSNYANWVQKKPGQAPRGLIGGTNKRAPGVPARFSGSLLGDKAALTLLGAQPEDEAEYYCALWYSNLWVFGQGTKLTVLGQPKAAPSVTLFPPSSEELQANKATLVCLISDFYPGAVTVAWKADSSPVKAGVETTTPSKQSNNKYAASSYLSLTPEQWKSHRSYSCQVTHEGSTVEKTVAPTECS
As for B3, the “EC50 of PBMC killing of L363 cells” value in assay [13] came out at 356 pM.

B4: F2 (24) (F2-SP34.24-SC38497) (trispecific antibody, human IgG1, kappa, lambda, L234A L235A)
heavy 1: not shown
light 1: DIVMTQSPDSLAVSLGERATINCRASESVDSYGITFMNWYQQKPGQPPKLLIYAASNQGSGVPDRFSGSGSGTDFTLTISSLQAEDVAVYYCQQSKEVPWTFGQGTKLEIKRTVAAPSVFIFPPSDEQLKSGTASVVCLLNNFYPREAKVQWKVDNALQSGNSQESVTEQDSKDSTYSLSSTLTLSKADYEKHKVYACEVTHQGLSSPVTKSFNRGEC
heavy 2: EVQLVESGGGLVQPGGSLKLSCAASGFTFNTYAMNWVRQASGKGLEWVGRIRSKYNNYATYYADSVKDRFTISRDDSKSTLYLQMNSLKTEDTAVYYCARHGNFGQSYVSWFAYWGQGTTVTVSSASTKGPSVFPLAPSSKSTSGGTAALGCLVKDYFPEPVTVSWNSGALTSGVHTFPAVLQSSGLYSLSSVVTVPSSSLGTQTYICNVNHKPSNTKVDKKVEPKSCDKTHTCPPCPAPEAAGGPSVFLFPPKPKDTLMISRTPEVTCVVVDVSHEDPEVKFNWYVDGVEVHNAKTKPREEQYNSTYRVVSVLTVLHQDWLNGKEYKCKVSNKALPAPIEKTISKAKGQPREPQVYTLPPSRDELTKNQVSLSCAVKGFYPSDIAVEWESNGQPENNYKTTPPVLDSDGSFFLVSKLTVDKSRWQQGNVFSCSVMHEALHNHYTQKSLSLSPGAGGGGSGGGGSDIQMTQSPSSLSASVGDRVTITCRASQSISRYLNWYQQKPGKAPKLLIYAASSLQSGVPSRFSGSGSGTDFTLTISSLQPEDFATYYCQQKYFDITFGCGTKVEIKGGGGSGGGGSGGGGSQLQLQESGPGLVKPSETLSLTCTVSGGSIVSSSYYWTWIRQPPGKCLEWIGSISIAGSTYYNPSLKSRVTISVDTSKNQFSLKLSSVTAADTAVYYCARDRGDQILDVWSQGTMVTVSS
light 2: QAVVTQEPSLTVSPGGTVTLTCRSSTGAVTTSNYANWVQQKPGQAPRGLIGGTNKRAPGVPARFSGSLLGDKAALTLLGAQPEDEAEYYCALWYSNLWVFGQGTKLTVLGQPKAAPSVTLFPPSSEELQANKATLVCLISDFYPGAVTVAWKADSSPVKAGVETTTPSKQSNNKYAASSYLSLTPEQWKSHRSYSCQVTHEGSTVEKTVAPTECS
As for B4, the EC50 came out at 108 nM in [4]; 32.5 nM in [14]; 33.7 nM in [15]; 142 nM in assay [8]; 83 nM in [9]; 8.94 nM in assay [16]. This molecule also came in with an EC50 in assay [11] of 73.3 nM. The Kd with cyno CD3E&G-His/Free turned out to be 12.5 nM; in the assay with human CD3E&G-His/Free it was 17.2 nM. For the same molecule, the off-rate (koff) in the assay with cyno CD3E&G-His/Free is 0.00597 s⁻¹; with human CD3E&G-His/Free it was 0.00765 s⁻¹. For the same molecule, the kon with cyno CD3E&G-His/Free was found to be 476000 M⁻¹ s⁻¹; with human CD3E&G-His/Free, 445000 M⁻¹ s⁻¹. Besides, the “EC50 of PBMC killing of H929 ko GPRC5D cells (LDH)” value in [7] was 475 pM. Besides, in [10], the “EC50 of PBMC killing of H929 ko BCMA cells (LDH)” value came out at 4 pM.

By EC50 is commonly meant the concentration at which the effect is half-maximal. By Kd is commonly meant the free concentration of one partner at which half of the binding sites on the other are occupied at equilibrium, for simple one-to-one binding. As usually defined, the koff is the rate constant with which the complex falls apart. One may read the kon as the rate constant with which the complex forms.
